Where two headings read alike, the source gives them in different places.
T1: activin A (UniProt P08476 311-426)
T1 construct: The same holds for m2-m11
T1 sequence (looked up): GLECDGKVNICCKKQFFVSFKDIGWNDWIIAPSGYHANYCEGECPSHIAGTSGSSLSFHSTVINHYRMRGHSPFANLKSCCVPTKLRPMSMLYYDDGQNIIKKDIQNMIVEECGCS

T2: activin B (UniProt P09529 293-407)
T2 sequence (looked up): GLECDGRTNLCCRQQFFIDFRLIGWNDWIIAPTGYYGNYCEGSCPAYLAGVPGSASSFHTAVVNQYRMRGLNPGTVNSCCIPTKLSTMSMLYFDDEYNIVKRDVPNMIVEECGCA

T3: BMP9 (UniProt Q9UK05 320-429)
T3 construct: also called GDF2
T3 sequence (looked up): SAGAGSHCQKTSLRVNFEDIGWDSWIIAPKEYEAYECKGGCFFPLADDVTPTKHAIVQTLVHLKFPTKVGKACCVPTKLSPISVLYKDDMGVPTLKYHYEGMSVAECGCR

T4: GDF3 (UniProt Q9NR23 251-364)
T4 sequence (looked up): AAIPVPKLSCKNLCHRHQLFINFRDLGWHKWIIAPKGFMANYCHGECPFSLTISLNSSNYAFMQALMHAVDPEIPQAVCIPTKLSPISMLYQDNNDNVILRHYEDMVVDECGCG

T5: GDF8 (UniProt O14793 267-375)
T5 construct: also called myostatin
T5 sequence (looked up): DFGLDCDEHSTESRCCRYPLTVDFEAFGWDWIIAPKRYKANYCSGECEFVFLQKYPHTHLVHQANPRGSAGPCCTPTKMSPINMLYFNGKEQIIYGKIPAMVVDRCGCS

T6: BMP6 (UniProt P22004 382-513, limits assumed)
T6 sequence (looked up): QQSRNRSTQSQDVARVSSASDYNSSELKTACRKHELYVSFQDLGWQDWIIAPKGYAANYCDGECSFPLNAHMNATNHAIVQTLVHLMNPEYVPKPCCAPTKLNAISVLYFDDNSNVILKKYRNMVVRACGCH

T7: activin C (UniProt P55103 237-352)
T7 sequence (looked up): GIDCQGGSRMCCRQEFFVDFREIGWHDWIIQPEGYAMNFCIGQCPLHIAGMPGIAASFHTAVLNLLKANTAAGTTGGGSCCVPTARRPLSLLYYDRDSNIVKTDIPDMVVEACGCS

T8: activin AC (UniProt P08476 311-426; P55103 237-352)
T8 sequence (looked up) 1: T1 sequence (looked up)
T8 sequence (looked up) 2: T7 sequence (looked up)

T9: BMP5 (UniProt P22003 317-454, limits assumed)
T9 sequence (looked up): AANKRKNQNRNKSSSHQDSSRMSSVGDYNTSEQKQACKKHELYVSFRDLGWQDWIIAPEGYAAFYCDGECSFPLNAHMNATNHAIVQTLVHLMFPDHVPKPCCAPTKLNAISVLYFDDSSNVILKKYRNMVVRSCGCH

B1: ALK4-Fc homodimer (Fc fusion, not shown: a dimerising Fc or GST)
chain: SGPRGVQALLCACTSCLQANYTCETDGACMVSIFNLDGMEHHVRTCIPKVELVPAGKPFYCLSSEDLRNTHCCYTDYCNRIDLRVPSGHLKEPEHPSMWGPVE
B2: GDF11 (ligand, UniProt O95390 299-407, looked up)
chain: NLGLDCDEHSSESRCCRYPLTVDFEAFGWDWIIAPKRYKANYCSGQCEYMFMQKYPHTHLVQQANPRGSAGPCCTPTKMSPINMLYFNDKQQIIYGKIPGMVVDRCGCS
notes: also called BMP11
B3: ActRIIB-Fc:ALK4-Fc heterodimer (Fc fusion)
chain 1: GRGEAETRECIYYNANWELERTNQSGLERCEGEQDKRLHCYASWRNSSGTIELVKKGCWLDDFNCYDRQECVATEENPQVYFCCCEGNFCNERFTHLPEAGGPEVTYEPPPTAPTGGGTHTCPPCPAPELLGGPSVFLFPPKPKDTLMISRTPEVTCVVVDVSHEDPEVKFNWYVDGVEVHNAKTKPREEQYNSTYRVVSVLTVLHQDWLNGKEYKCKVSNKALPAPIEKTISKAKGQPREPQVYTLPPSRKEMTKNQVSLTCLVKGFYPSDIAVEWESNGQPENNYKTTPPVLKSDGSFFLYSKLTVDKSRWQQGNVFSCSVMHEALHNHYTQKSLSLSPGK
chain 2: SGPRGVQALLCACTSCLQANYTCETDGACMVSIFNLDGMEHHVRTCIPKVELVPAGKPFYCLSSEDLRNTHCCYTDYCNRIDLRVPSGHLKEPEHPSMWGPVETGGGTHTCPPCPAPELLGGPSVFLFPPKPKDTLMISRTPEVTCVVVDVSHEDPEVKFNWYVDGVEVHNAKTKPREEQYNSTYRVVSVLTVLHQDWLNGKEYKCKVSNKALPAPIEKTISKAKGQPREPQVYTLPPSREEMTKNQVSLTCLVKGFYPSDIAVEWESNGQPENNYDTTPPVLDSDGSFFLYSDLTVDKSRWQQGNVFSCSVMHEALHNHYTQKSLSLSPG
notes: the receptor domains are the same in all; also called ALK4-Fc:ActRIIB-Fc heterodimer; ActRIIB-Fc:ALK4-Fc heterodimeric complex
B4: ActRIIB-Fc:ALK7-Fc heterodimer (Fc fusion)
chain 1: B3 chain 1
chain 2: GLKCVCLLCDSSNFTCQTEGACWASVMLTNGKEQVIKSCVSLPELNAQVFCHSSNNVTKTECCFTDFCNNITLHLPTASPNAPKLGPMETGGGTHTCPPCPAPELLGGPSVFLFPPKPKDTLMISRTPEVTCVVVDVSHEDPEVKFNWYVDGVEVHNAKTKPREEQYNSTYRVVSVLTVLHQDWLNGKEYKCKVSNKALPAPIEKTISKAKGQPREPQVYTLPPSREEMTKNQVSLTCLVKGFYPSDIAVEWESNGQPENNYDTTPPVLDSDGSFFLYSDLTVDKSRWQQGNVFSCSVMHEALHNHYTQKSLSLSPG
notes: also called ActRIIB-Fc:ALK7 heterodimer; ActRIIB-Fc:ALK7-Fc heterodimeric complex
B5: ALK7-Fc homodimer (Fc fusion, not shown: a dimerising Fc or GST)
chain: LSPGLKCVCLLCDSSNFTCQTEGACWASVMLTNGKEQVIKSCVSLPELNAQVFCHSSNNVTKTECCFTDFCNNITLHLPTASPNAPKLGPME
notes: the whole extracellular entry is named
B6: BMP10 (ligand, UniProt O95393 317-424, looked up)
chain: NAKGNYCKRTPLYIDFKEIGWDSWIIAPPGYEAYECRGVCNYPLAEHLTPTKHAIIQALVHLKNSQKASKACCVPTKLEPISILYLDKGVVTYKFKYEGMAVSECGCR

Columns and labels:
activin A [1] = target: T1, activin A; test: SPR (Biacore), anti-Fc capture of receptor
Protocol: (§1) A Biacore™-based binding assay was used to compare ligand binding selectivity of the ActRIIB-Fc:ALK4-Fc heterodimeric complex described above with that of ActRIIB-Fc and ALK4-Fc homodimer complexes. The ActRIIB-Fc:ALK4-Fc heterodimer, ActRIIB-Fc homodimer, and ALK4-Fc homodimer were independently captured onto the system using an anti-Fc antibody. Ligands were injected and allowed to flow over the captured receptor protein. Results are summarized in the table below, in which ligand off-rates (kd) most indicative of effective ligand traps are denoted in bold.

activin B [2] = target: T2, activin B; test: SPR (Biacore), anti-Fc capture of receptor
Protocol: as §1

ActRIIA-mFc [3] = target: T10, ActRIIA-mFc (human, UniProt P27037 21-135); test: SPR (Biacore), ligand amine-coupled on CM5 chip
T10 construct: not shown: minimal linker and mouse Fc domain
T10 sequence (P27037 21-135): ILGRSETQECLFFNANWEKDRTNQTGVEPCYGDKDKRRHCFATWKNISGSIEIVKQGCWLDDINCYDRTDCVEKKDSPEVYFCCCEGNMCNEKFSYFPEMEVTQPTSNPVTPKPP
Protocol: (§2) GDF11 or activin A were immobilized on a Biacore™ CM5 chip using standard amine-coupling procedure. ActRIIA-hFc and ActRIIA-mFc proteins were loaded onto the system, and binding was measured. […] See FIG. 15A-B. Using a similar binding assay, ActRIIA-hFc was determined to have high to moderate affinity for other TGF-beta superfamily ligands including, for example, activin B, GDF8, BMP6, and BMP10. ActRIIA-mFc behaved similarly.

BMP9 [4] = target: T3, BMP9; test: SPR (Biacore), anti-Fc capture of receptor
Protocol: as §1

BMP10 [5] = target: B6; test: SPR (Biacore), anti-Fc capture of receptor
Protocol: as §1

GDF3 [6] = target: T4, GDF3; test: SPR (Biacore), anti-Fc capture of receptor
Protocol: as §1

GDF8 [7] = target: T5, GDF8; test: SPR (Biacore), anti-Fc capture of receptor
Protocol: as §1

GDF11 [8] = target: B2; test: SPR (Biacore), anti-Fc capture of receptor
Protocol: as §1

BMP6 [9] = target: T6, BMP6; test: SPR (Biacore), anti-Fc capture of receptor
Protocol: as §1

activin A [10] = target: T1, activin A; test: SPR (Biacore), anti-Fc capture of receptor; remark: listed apart in the source
Protocol: (§3) A Biacore™-based binding assay was used to compare ligand binding selectivity of the ActRIIB-Fc:ALK7-Fc heterodimeric complex described above with that of ActRIIB-Fc and ALK7-Fc homodimeric complexes. The ActRIIB-Fc:ALK7-Fc heterodimer, ActRIIB-Fc homodimer, and ALK7-Fc homodimer were independently captured onto the system using an anti-Fc antibody. Ligands were injected and allowed to flow over the captured receptor protein. Results are summarized in the table below, in which ligand off-rates (kd) most indicative of effective ligand traps are denoted by in bold.

BMP9 [11] = target: T3, BMP9; test: SPR (Biacore), anti-Fc capture of receptor; remark: listed apart in the source
Protocol: as §3

BMP10 [12] = target: B6; test: SPR (Biacore), anti-Fc capture of receptor; remark: listed apart in the source
Protocol: as §3

activin B [13] = target: T2, activin B; test: SPR (Biacore), anti-Fc capture of receptor; remark: listed apart in the source
Protocol: as §3

activin C = target: T7, activin C; test: SPR (Biacore), anti-Fc capture of receptor
Protocol: as §3

activin AC = target: T8, activin AC; test: SPR (Biacore), anti-Fc capture of receptor
Protocol: as §3

GDF3 [14] = target: T4, GDF3; test: SPR (Biacore), anti-Fc capture of receptor; remark: listed apart in the source
Protocol: as §3

GDF8 [15] = target: T5, GDF8; test: SPR (Biacore), anti-Fc capture of receptor; remark: listed apart in the source
Protocol: as §3

GDF11 [16] = target: B2; test: SPR (Biacore), anti-Fc capture of receptor; remark: listed apart in the source
Protocol: as §3

BMP5 = target: T9, BMP5; test: SPR (Biacore), anti-Fc capture of receptor
Protocol: as §3

BMP6 [17] = target: T6, BMP6; test: SPR (Biacore), anti-Fc capture of receptor; remark: listed apart in the source
Protocol: as §3

ActRIIA-mFc [18] = target: T10, ActRIIA-mFc; test: similar binding assay (SPR)
Protocol: as §2

Binder: B1
Kd (activin A [1]): 20 nM
koff (activin A [1]): 0.012 s⁻¹
kon (activin A [1]): 580000 M⁻¹ s⁻¹
binding result (activin B [2]): no binding

Binder: B2
binding result (ActRIIA-mFc [3]): binds

Binder: B3
Kd (activin A [1]): 0.012 nM
koff (activin A [1]): 0.00015 s⁻¹
kon (activin A [1]): 1.3e+07 M⁻¹ s⁻¹
Kd (BMP9 [4]): 3.4 nM
Kd (BMP10 [5]): 0.074 nM
koff (BMP10 [5]): 0.0041 s⁻¹
kon (BMP10 [5]): 5.6e+07 M⁻¹ s⁻¹
Kd (activin B [2]): 0.006 nM
koff (activin B [2]): 4e-05 s⁻¹
kon (activin B [2]): 7.1e+06 M⁻¹ s⁻¹
Kd (GDF3 [6]): 4.9 nM
koff (GDF3 [6]): 0.017 s⁻¹
kon (GDF3 [6]): 3.4e+06 M⁻¹ s⁻¹
Kd (GDF8 [7]): 0.55 nM
koff (GDF8 [7]): 0.00021 s⁻¹
kon (GDF8 [7]): 390000 M⁻¹ s⁻¹
Kd (GDF11 [8]): 0.003 nM
koff (GDF11 [8]): 0.00011 s⁻¹
kon (GDF11 [8]): 3.8e+07 M⁻¹ s⁻¹
Kd (BMP6 [9]): 2.7 nM
koff (BMP6 [9]): 0.0055 s⁻¹
kon (BMP6 [9]): 2e+06 M⁻¹ s⁻¹

Binder: B4
Kd (activin A [10]): 0.043 nM
koff (activin A [10]): 0.0019 s⁻¹
kon (activin A [10]): 4.4e+07 M⁻¹ s⁻¹
Kd (BMP9 [11]): > 1.4 nM
Kd (BMP10 [12]): 0.19 nM
koff (BMP10 [12]): 0.0028 s⁻¹
kon (BMP10 [12]): 1.5e+07 M⁻¹ s⁻¹
Kd (activin B [13]): 0.017 nM
koff (activin B [13]): 0.0002 s⁻¹
kon (activin B [13]): 1.2e+07 M⁻¹ s⁻¹
Kd (activin C): 6.9 nM
koff (activin C): 0.0024 s⁻¹
kon (activin C): 350000 M⁻¹ s⁻¹
Kd (activin AC): 0.22 nM
koff (activin AC): 0.00057 s⁻¹
kon (activin AC): 2.6e+06 M⁻¹ s⁻¹
Kd (GDF3 [14]): 4.5 nM
koff (GDF3 [14]): 0.01 s⁻¹
kon (GDF3 [14]): 2.3e+06 M⁻¹ s⁻¹
Kd (GDF8 [15]): 0.27 nM
koff (GDF8 [15]): 0.001 s⁻¹
kon (GDF8 [15]): 3.7e+06 M⁻¹ s⁻¹
Kd (GDF11 [16]): 0.008 nM
koff (GDF11 [16]): 0.00075 s⁻¹
kon (GDF11 [16]): 9.5e+07 M⁻¹ s⁻¹
Kd (BMP5): 57 nM
koff (BMP5): 0.0085 s⁻¹
kon (BMP5): 150000 M⁻¹ s⁻¹
Kd (BMP6 [17]): 5.3 nM
koff (BMP6 [17]): 0.0063 s⁻¹
kon (BMP6 [17]): 1.2e+06 M⁻¹ s⁻¹

Binder: B5
binding result (activin A [10]): no binding
binding result (BMP9 [11]): no binding
binding result (BMP10 [12]): no binding
binding result (activin B [13]): no binding
binding result (activin C): no binding
binding result (activin AC): no binding
binding result (GDF3 [14]): no binding
binding result (GDF8 [15]): no binding
binding result (GDF11 [16]): no binding
binding result (BMP5): no binding
binding result (BMP6 [17]): no binding

Binder: B6
binding result (ActRIIA-mFc [18]): binds
